Values joined by “and” are separate entries in the source; they are usually repeats but may differ in a detail not shown here. Equal values may be shown once. Read-outs that look alike come from different tables or passages of the source.
Experiments:
SEC = biological target: the molecule itself; test: SEC
[1] = biological target: T1, HA-tagged PNPase (catalytically active) (M. smegmatis, UniProt A0QVQ5 1-763); test: co-IP
T1 sequence: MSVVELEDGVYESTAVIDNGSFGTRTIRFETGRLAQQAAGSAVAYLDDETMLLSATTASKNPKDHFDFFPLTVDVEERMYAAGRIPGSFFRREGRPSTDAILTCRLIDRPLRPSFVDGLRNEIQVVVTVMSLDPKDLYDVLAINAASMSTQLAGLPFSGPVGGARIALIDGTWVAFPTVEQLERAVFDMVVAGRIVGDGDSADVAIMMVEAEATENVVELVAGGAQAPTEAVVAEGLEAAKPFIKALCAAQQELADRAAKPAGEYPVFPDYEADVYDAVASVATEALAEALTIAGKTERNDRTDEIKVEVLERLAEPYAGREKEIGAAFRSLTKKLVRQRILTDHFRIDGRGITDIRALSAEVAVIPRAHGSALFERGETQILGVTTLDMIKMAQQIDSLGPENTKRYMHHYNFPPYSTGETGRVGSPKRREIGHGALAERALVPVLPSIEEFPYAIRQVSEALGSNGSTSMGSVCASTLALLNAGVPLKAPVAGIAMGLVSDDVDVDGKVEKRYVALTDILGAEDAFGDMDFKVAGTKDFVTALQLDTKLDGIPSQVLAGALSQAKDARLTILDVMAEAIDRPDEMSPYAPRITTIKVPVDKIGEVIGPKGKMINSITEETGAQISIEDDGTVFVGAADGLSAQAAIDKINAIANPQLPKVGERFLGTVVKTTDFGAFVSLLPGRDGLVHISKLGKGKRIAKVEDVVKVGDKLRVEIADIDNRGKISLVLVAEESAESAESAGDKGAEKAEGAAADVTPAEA

[2] = biological target: T2, untagged PNPase (catalytically active) (M. smegmatis, UniProt A0QVQ5 1-763); test: co-IP
T2 sequence: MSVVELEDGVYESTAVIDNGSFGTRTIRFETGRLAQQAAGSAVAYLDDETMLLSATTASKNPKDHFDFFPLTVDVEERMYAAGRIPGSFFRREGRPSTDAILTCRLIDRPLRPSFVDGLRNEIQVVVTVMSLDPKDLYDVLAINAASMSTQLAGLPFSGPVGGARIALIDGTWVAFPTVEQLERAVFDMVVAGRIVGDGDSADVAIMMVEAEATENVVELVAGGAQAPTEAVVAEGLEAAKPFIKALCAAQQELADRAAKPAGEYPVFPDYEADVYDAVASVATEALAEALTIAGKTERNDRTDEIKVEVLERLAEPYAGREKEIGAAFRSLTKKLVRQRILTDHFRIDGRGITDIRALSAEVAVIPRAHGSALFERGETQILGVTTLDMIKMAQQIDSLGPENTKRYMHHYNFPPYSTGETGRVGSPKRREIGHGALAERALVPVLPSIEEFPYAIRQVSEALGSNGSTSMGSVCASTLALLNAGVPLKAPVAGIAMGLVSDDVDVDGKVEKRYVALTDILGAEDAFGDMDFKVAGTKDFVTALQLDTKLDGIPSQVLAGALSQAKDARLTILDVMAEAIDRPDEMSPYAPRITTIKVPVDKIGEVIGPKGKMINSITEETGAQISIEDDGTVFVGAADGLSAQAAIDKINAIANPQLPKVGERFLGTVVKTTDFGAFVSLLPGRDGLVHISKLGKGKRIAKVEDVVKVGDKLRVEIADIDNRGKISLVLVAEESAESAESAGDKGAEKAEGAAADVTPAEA

[3] = biological target: T1, HA-tagged PNPase (catalytically active); test: co-IP; remark: listed apart in the source

B1: catalytically dead full-length RNase E (D694R, D738R), N-terminal 6x-His and FLAG tagged (enzyme)
chain: MAEDAHTEDLSTQTPQQEGLPERLRVHSLARVLGTTSRRVLDALAEFDGRQRSAHSTVDKADAERVRAALTESPAAETPPEEAPAAETPVADLVVVQAEQVEVVTVSEAGPAEPAEPAEPEAPAAEAEAEAETEVADEAETPEPTFRGAVLVGDEPESRLILEHANIPPARETQTERPDYLPLFVAPQPVSFEPAVVDDEDEDDDTETGAESDFDSGADSDSDDDQADRPRRRRRGRRGRGRGRGEQNDDATSDADTDSTEDQTDGDEQESGEDSDDSGDEDSTTTEGGTRRRRRRRRRKSGSGDSDDAVSPDDPPNTVVHERAPRTERSDKSDDSEIQGISGSTRLEAKRQRRRDGRDAGRRRPPILSEAEFLARREAVERTMIVRDKVRTEPPHEGARYTQIAVLEDGVVVEHFVTSAASASLVGNIYLGIVQNVLPSMEAAFVDIGRGRNGVLYAGEVNWEAAGLGGQNRKIEQALKPGDYVVVQVSKDPVGHKGARLTTQVSLAGRYLVYVPGASSTGISRKLPDTERQRLKEILREVVPSDAGVIIRTASEGVKEEDIRSDVERLQKRWSEIEAKAAEVTEKKAGAAVALYEEPDVLVKVIRDLFNEDFSSLIVSGDEAWNTINSYVEAVAPDLMPRLTKYEPAGPDAPDVFAVHRIDEQLAKAMDRKVWLPSGGTLVIDRTEAMTVVRVNTGKFTGSGGNLEQTVTRNNLEAAEEIVRQLRLRDIGGIVVIRFIDMVLESNRDLVLRRLTEALARDRTRHQVSEVTSLGLVQLTRKRLGTGLVEAFSTACTHCGGRGIVLHGDPIDSASSNGGRKSDSSGGGGSGGGRRGKRGKKGAARTEEVHVAKVPDHTPGEHPMFKAMAAANGKHEGDEDHEDHEDHETAEDTTAAEVRDDTRDEHDADERAHVVTAAVGAAGDEDLDDSDEDSDLDSDEESDDESDEDEIELDDDEDELDEDIEVIGDSDDSDDSDDSDEDDDSDDSDDDSDEDEDSDSDEDEEPVREVYEPPVTAPRARVRRRAAARPAGPPSHD
SEC
  stoichiometry N: 4

B2: catalytically dead RNase E N-terminal IDR deletion (retaining AA 330-1037), N-terminal 6x-His and FLAG tagged (domain or fragment)
chain: SDKSDDSEIQGISGSTRLEAKRQRRRDGRDAGRRRPPILSEAEFLARREAVERTMIVRDKVRTEPPHEGARYTQIAVLEDGVVVEHFVTSAASASLVGNIYLGIVQNVLPSMEAAFVDIGRGRNGVLYAGEVNWEAAGLGGQNRKIEQALKPGDYVVVQVSKDPVGHKGARLTTQVSLAGRYLVYVPGASSTGISRKLPDTERQRLKEILREVVPSDAGVIIRTASEGVKEEDIRSDVERLQKRWSEIEAKAAEVTEKKAGAAVALYEEPDVLVKVIRDLFNEDFSSLIVSGDEAWNTINSYVEAVAPDLMPRLTKYEPAGPDAPDVFAVHRIDEQLAKAMDRKVWLPSGGTLVIDRTEAMTVVRVNTGKFTGSGGNLEQTVTRNNLEAAEEIVRQLRLRDIGGIVVIRFIDMVLESNRDLVLRRLTEALARDRTRHQVSEVTSLGLVQLTRKRLGTGLVEAFSTACTHCGGRGIVLHGDPIDSASSNGGRKSDSSGGGGSGGGRRGKRGKKGAARTEEVHVAKVPDHTPGEHPMFKAMAAANGKHEGDEDHEDHEDHETAEDTTAAEVRDDTRDEHDADERAHVVTAAVGAAGDEDLDDSDEDSDLDSDEESDDESDEDEIELDDDEDELDEDIEVIGDSDDSDDSDDSDEDDDSDDSDDDSDEDEDSDSDEDEEPVREVYEPPVTAPRARVRRRAAARPAGPPSHD
[1]
  binding result: binds
SEC
  stoichiometry N: 2 and 4

B3: catalytically dead RNase E C-terminal IDR deletion (retaining AA 2-823), N-terminal 6x-His and FLAG tagged (domain or fragment)
chain: AEDAHTEDLSTQTPQQEGLPERLRVHSLARVLGTTSRRVLDALAEFDGRQRSAHSTVDKADAERVRAALTESPAAETPPEEAPAAETPVADLVVVQAEQVEVVTVSEAGPAEPAEPAEPEAPAAEAEAEAETEVADEAETPEPTFRGAVLVGDEPESRLILEHANIPPARETQTERPDYLPLFVAPQPVSFEPAVVDDEDEDDDTETGAESDFDSGADSDSDDDQADRPRRRRRGRRGRGRGRGEQNDDATSDADTDSTEDQTDGDEQESGEDSDDSGDEDSTTTEGGTRRRRRRRRRKSGSGDSDDAVSPDDPPNTVVHERAPRTERSDKSDDSEIQGISGSTRLEAKRQRRRDGRDAGRRRPPILSEAEFLARREAVERTMIVRDKVRTEPPHEGARYTQIAVLEDGVVVEHFVTSAASASLVGNIYLGIVQNVLPSMEAAFVDIGRGRNGVLYAGEVNWEAAGLGGQNRKIEQALKPGDYVVVQVSKDPVGHKGARLTTQVSLAGRYLVYVPGASSTGISRKLPDTERQRLKEILREVVPSDAGVIIRTASEGVKEEDIRSDVERLQKRWSEIEAKAAEVTEKKAGAAVALYEEPDVLVKVIRDLFNEDFSSLIVSGDEAWNTINSYVEAVAPDLMPRLTKYEPAGPDAPDVFAVHRIDEQLAKAMDRKVWLPSGGTLVIDRTEAMTVVRVNTGKFTGSGGNLEQTVTRNNLEAAEEIVRQLRLRDIGGIVVIRFIDMVLESNRDLVLRRLTEALARDRTRHQVSEVTSLGLVQLTRKRLGTGLVEAFSTACTHCGGRGIVLHGDPIDSASSNGGRKSD
SEC
  stoichiometry N: 2 and 4

B4: HA-tagged RNase J (catalytically active) (enzyme)
chain: MSAELAPPPPLAPGGLRVTALGGISEIGRNMTVFEHLGRLLIVDCGVLFPGHDEPGVDLILPDLRHIEDRLDEIEALVVTHAHEDHIGAIPFLLKLRPDIPVVGSKFTIALVREKCREHRLKPKFVEVAERQSSQHGVFECEYFAVNHSIPGCLAVAIHTGAGTVLHTGDIKLDQLPLDGRPTDLPGMSRLGDAGVDLFLCDSTNSEHPGVSPSESEVGPTLHRLIRGAEGRVIVACFASNVDRVQQIIDAAVALGRRVSFVGRSMVRNMGIARELGYLKVDDSDILDIAAAEMMPPDRVVLITTGTQGEPMAALSRMSRGEHRSITLTSGDLIILSSSLIPGNEEAVYGVIDSLSKIGARVVTNAQARVHVSGHAYAGELLFLYNGVRPRNVMPVHGTWRHLRANAALAASTGVPPENIVLAENGVSVDLVAGRASISGAVTVGKMFVDGLITGDVGDATLGERLILSSGFVSITVVVHRGTGRPAGPAHLISRGFSEDPKALEPVAQKVERELEALAADNVTDPTRIAQAVRRTVGKWVGETYRRQPMIVPTVIEI
[2]
  binding result: binds

B5: untagged RNase J (catalytically active) (enzyme)
chain: MSAELAPPPPLAPGGLRVTALGGISEIGRNMTVFEHLGRLLIVDCGVLFPGHDEPGVDLILPDLRHIEDRLDEIEALVVTHAHEDHIGAIPFLLKLRPDIPVVGSKFTIALVREKCREHRLKPKFVEVAERQSSQHGVFECEYFAVNHSIPGCLAVAIHTGAGTVLHTGDIKLDQLPLDGRPTDLPGMSRLGDAGVDLFLCDSTNSEHPGVSPSESEVGPTLHRLIRGAEGRVIVACFASNVDRVQQIIDAAVALGRRVSFVGRSMVRNMGIARELGYLKVDDSDILDIAAAEMMPPDRVVLITTGTQGEPMAALSRMSRGEHRSITLTSGDLIILSSSLIPGNEEAVYGVIDSLSKIGARVVTNAQARVHVSGHAYAGELLFLYNGVRPRNVMPVHGTWRHLRANAALAASTGVPPENIVLAENGVSVDLVAGRASISGAVTVGKMFVDGLITGDVGDATLGERLILSSGFVSITVVVHRGTGRPAGPAHLISRGFSEDPKALEPVAQKVERELEALAADNVTDPTRIAQAVRRTVGKWVGETYRRQPMIVPTVIEI
[3]
  binding result: binds

From paper PMC12767347 (bioRxiv, 2025)
